Data on 16 molecules can be found in US20150353933, “APTAMER AGAINST MIDKINE AND APPLICATIONS THEREOF” (RIBOMIC INC., published 2015).

Data set [1] concerns the target T1, midkine (AP-MK) (Homo sapiens, UniProt P21741 P21741:23-143).
T1 chain: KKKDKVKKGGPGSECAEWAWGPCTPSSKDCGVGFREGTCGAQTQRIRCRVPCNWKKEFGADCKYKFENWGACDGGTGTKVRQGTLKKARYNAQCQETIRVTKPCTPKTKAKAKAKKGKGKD
In words: inhibition; AP-MK binding to HepG2, 500 nM aptamer. The conditions noted are these: tags: alkaline phosphatase fusion, APtag-5 vector (GenHunter), 293T culture supernatant. Here is the method: (§1) Using the above-mentioned AP-MK, a binding inhibitory experiment relative to TNB1 cell, which is a human neuroblastoma cell, was performed. TNB1 cells were seeded at 1×10⁵ cells/well on a 6-well plate coated with collagen I. The next day, the cells were washed with 1 mL of HBHA (HBSS+0.5 mg/mL BSA+20 mM HEPES pH 7.0), 1 U/mL AP or AP-MK, and further, the aptamer shown in SEQ ID NO: 7-1 at a final concentration of 100 nM were added and the mixture was maintained at room temperature for 90 min. After washing 5 times with 1 mL of HBHA, 200 μL of Cell Lysis Buffer (manufactured by GenHunter) was added and the mixture was stirred for 5 min. The cells were scraped with a Scraper and placed in an Eppendorf tube, vortexed for 10 sec and centrifuged at 15000 rpm for 2 min. The supernatant was recovered, and heated at 65° C. for 10 min to inactivate endogenous AP. Using 50 μL, color development was performed in the same manner as above (15 min) and the activity of AP was calculated.
An experiment similar to the above was performed using HepG2 cells which are human liver cancer-derived cells. It is already known that MK is deeply involved in the growth and inhibition of apoptosis of HepG2 cells (Ohuchida et al., Cancer 100, 2430-2436, 2004; Dai et al., World J. Gastroenterol. 15, 1966-1972, 2009). When the aptamer was added to the system, the binding of AP-MK and HepG2 was inhibited (Table 1).

Data set [2] addresses T2, midkine (MK) (Homo sapiens, UniProt P21741 P21741:21-143).
T2 sequence: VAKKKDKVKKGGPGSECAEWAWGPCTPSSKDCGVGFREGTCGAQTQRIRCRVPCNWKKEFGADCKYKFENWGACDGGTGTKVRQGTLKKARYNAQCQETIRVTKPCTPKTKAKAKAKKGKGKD
The data set is described as follows: SPR; confirmed MK binding, as in Example 3. Particulars: tags: produced in yeast. The procedure: (§2) The binding activities of the oligonucleotides shown by SEQ ID NO:1 to 6 obtained in Examples 1 and 2 for MK were evaluated by a surface plasmon resonance method. The measurements were performed using BIAcore2000, manufactured by BIAcore. The sensor chip used was the SA chip, which had streptavidin immobilized thereon. Bound thereto was about 1000 RU of a 16-nucleotide Poly dT with biotin bound to the 5′ end thereof. […] 70 μL of MK for analyte, prepared at 0.5 μM, was injected.
Those aptamers were evaluated by the surface plasmon resonance method in the same manner as in Example 3, and they were confirmed to have MK binding activity.

Data set [3] has as its target T2, midkine (MK). In words: SPR; strongly binds; 0.5 uM MK analyte; solution A. Particulars: tags: produced in yeast. Here is the method: as §2
A general note: In SPR one partner is held on a chip, and binding of the other changes the refractive index at the surface.

Data set [4] deals with T1, midkine (AP-MK). In words: inhibition; AP-MK binding to HepG2 cells. The conditions noted are these: tags: alkaline phosphatase fusion, APtag-5 vector (GenHunter), 293T culture supernatant. Here is the method: as §1
An altered form of SEQ ID NO: 7-1 was produced, and AP-MK binding inhibitory experiment was performed using HepG2 and TNB1 cells and in the same manner as above. The sequences of the altered forms actually produced are shown below. While Poly dA for BIAcore measurement is added to the 3′-terminus of the aptamers shown in SEQ ID NO: 9 and SEQ ID NO: 9-1-5, an influence on the activity is not expected. The 50% inhibitory concentration (IC₅₀) was determined from the concentrations at two, above and below points sandwiching the 50% inhibitory activity (Table 2).

Numbering of substitutions follows the chain as printed.

B1: SEQ ID NO: 8-5 (ssRNA)
RNA: GUCUGUGUGGUUUAUCCGGAC
modifications: 5' 80PEG4gs; 3' idT; 2'-OMe at 1-3,8-10,13,18-21; 2'-F at U4,U6,U11,U12,U15,C16,C17; 2'-OH at G5,G7,A14
The molecule B1 displayed an activity in the data set with midkine (AP-MK) [1] of 61 % inhibition. Further, the binding result in the data set with midkine (MK) [2] was “binds”.

B2: SEQ ID NO: 8-2 (ssRNA)
RNA: GUCUGUGUGGUUUAUCCGGAC
modifications: 5' 80PEG4ts; 3' idT; 2'-OMe at G1,G9,G10,U13,G18,G19,A20; 2'-F at other pyrimidines except C21 (unmodified as printed); 2'-OH at G5,G7,A14
With B2, in the data set with midkine (AP-MK) [1], the activity stood at 61 % inhibition. For the same molecule, the binding result with midkine (MK) [2] is given as “binds”.

B3: SEQ ID NO: 2 (ssRNA)
RNA: GGGACACAAUGGACGUCUGUGUGGUUUAUCCGGAUGUCCGUCGUCCUCUGUCAUGUAACGGCCGACAUGAGAG
modifications: 2'-F pyrimidines; 16-nt poly A at 3' end for SPR
As to B3, the binding result with midkine (MK) [3] was “binds”.

B4: SEQ ID NO: 5 (ssRNA)
RNA: B3 RNA with U49G
modifications: 2'-F pyrimidines; 16-nt poly A at 3' end for SPR
For B4, the binding result in the data set with midkine (MK) [3] is “binds”.

B5: SEQ ID NO: 3 (ssRNA)
RNA: B3 RNA with A53G
modifications: 2'-F pyrimidines; 16-nt poly A at 3' end for SPR
In the case of B5, the binding result with midkine (MK) [3] is “binds”.

B6: SEQ ID NO: 4 (ssRNA)
RNA: B3 RNA with U51C
modifications: 2'-F pyrimidines; 16-nt poly A at 3' end for SPR
B6: in the data set with midkine (MK) [3], the binding result is “binds”.

B7: SEQ ID NO: 6 (ssRNA)
RNA: B3 RNA with U35C, A53G
modifications: 2'-F pyrimidines; 16-nt poly A at 3' end for SPR
Take B7: the binding result in the data set with midkine (MK) [3] is on record as “binds”.

B8: SEQ ID NO: 10 (ssRNA)
RNA: GCUCGCAAUGGUGAGUGGUUUAUCCGCCUGCGCAGC
modifications: 3' idT; 2'-OMe at 1-11,17,18,21,26,28-36; 2'-F at U12,U16,U19,U20,U23,C24,C25,C27; 2'-OH at G13,A14,G15,A22
Take B8: the IC50 (as a rule, the midpoint of a concentration-inhibition curve) with midkine (AP-MK) [4] is < 2 nM.

B9: SEQ ID NO: 8-3 (ssRNA)
RNA: GUCUGUGUGGUUUAUCCGGAC
modifications: 5' 80PEG4gs; 3' idT; 2'-OMe at G1,G9,G10,U13,G18,G19,A20; 2'-F at other pyrimidines except C21 (unmodified as printed); 2'-OH at G5,G7,A14
In turn, B9 displayed an activity in the data set with midkine (AP-MK) [1] of 65 % inhibition. Also, the binding result in the data set with midkine (MK) [2] is “binds”.

B10: SEQ ID NO: 8-4 (ssRNA)
RNA: GUCUGUGUGGUUUAUCCGGAC
modifications: 5' 80PEG4ts; 3' idT; 2'-OMe at 1-3,8-10,13,18-21; 2'-F at U4,U6,U11,U12,U15,C16,C17; 2'-OH at G5,G7,A14
B10 gave an activity with midkine (AP-MK) [1] of 58 % inhibition. The binding result with midkine (MK) [2] is “binds”.

B11: SEQ ID NO: 12 (ssRNA)
RNA: CGCAAUGGUGAGUGGUUUAUCCGCCUGCG
modifications: 3' idT; 2'-OMe at 1-8,14,15,18,23,25-29; 2'-F at U9,U13,U16,U17,U20,C21,C22,C24; 2'-OH at G10,A11,G12,A19
Turning to B11, the IC50 in the data set with midkine (AP-MK) [4] was < 2 nM.
On to GUCUGUGUGGUUUAUCCGGAC (ssRNA, 2'-F pyrimidines) [SEQ ID NO: 8], for which the binding result in the data set with midkine (MK) [2] is “binds”.

B12: SEQ ID NO: 9 (mixed)
RNA: GCCAUCGCAAUGGUGAGUGGUUUAUCCGCCUGCGCAUGGCAAAAAAAAAAAAAAAA
modifications: 2'-OMe at 1-3 and 38-40; 2'-F at all other pyrimidines; 3' 16-nt poly dA (DNA)
Turning to B12, the IC50 with midkine (AP-MK) [4] turned out to be 3.3 nM.

B13: SEQ ID NO: 9-5 (mixed)
RNA: B12 RNA
modifications: 2'-OMe at C2,C3,C40 and RNA purines except G15,A16,G17 (2'-OH); 2'-F at all other pyrimidines; 3' 16-nt poly dA (DNA)
Take B13: the IC50 with midkine (AP-MK) [4] was 19 nM.

B14: SEQ ID NO: 9-3 (mixed)
RNA: B12 RNA
modifications: 2'-OMe at C2,C3,C40 and RNA purines except G15,G17,A24 (2'-OH); 2'-F at all other pyrimidines; 3' 16-nt poly dA (DNA)
B14 gave an IC50 with midkine (AP-MK) [4] of 3 nM.

B15: SEQ ID NO: 9-1 (mixed)
RNA: B12 RNA
modifications: 2'-OMe at C2,C3,C40 and RNA purines except G15,A16,G17,A24 (2'-OH); 2'-F at all other pyrimidines; 3' 16-nt poly dA (DNA)
As for B15, the IC50 with midkine (AP-MK) [4] turned out to be 1.6 nM.
